{"source": "patent US20250263462A1", "about": "(US Dept. of Health and Human Services, published 2025)", "binders": {"B1": {"name": "TRAV19*01 + TRBV4*01 TCR chain pair (TCR, V domains shown)", "V domain 1": "GQQVKQSSPSLTVQEGGILILNCDYENDMFDYFAWYKKYPDNSPTLLISVRSNVDKREDGRFTVFLNKSGKHFSLHITASQPEDTAVYLCAAGDSGGSNYKLTFGKGTLLTVTP", "V domain 2": "ETAVFQTPNYHVTQVGNEVSFNCKQTLGHDTMYWYKQDSKKLLKIMFSYNNKQLIVNETVPRRFSPQSSDKAHLNLRIKSVEPEDSAVYLCASSRDWGPAEQFFGPGTRLTVLE"}, "B2": {"name": "TRAV4-4/DV10*01/BV12-2*01 murine anti-KRAS G12D TCR (SEQ ID NOs: 157 and 158) (TCR, V domains shown)", "V domain 1": "GDQVEQSPSALSLHEGTDSALRCNFTTTMRSVQWFRQNSRGSLISLFYLASGTKENGRLKSAFDSKERRYSTLHIRDAQLEDSGTYFCAADSSNTGYQNFYFGKGTSLTVIP", "V domain 2": "NSGVVQSPRYIIKGKGERSILKCIPISGHLSVAWYQQTQGQELKFFIQHYDKMERDKGNLPSRFSVQQFDDYHSEMNMSALELEDSAVYFCASSLTDPLDSDYTFGSGTRLLVIE"}}, "assay_in_all_cases": "cell-based or functional assay", "key": {"[1]": {"target": "HLA-A11 on COS7/A11 cells expressing the WT KRAS minigene (23-mer SEQ ID NO: 118) (human, UniProt A*11:01)"}, "[2]": {"target": "HLA-A11 on COS7/A11 cells expressing the KRAS G12D minigene (23-mer SEQ ID NO: 119) (human, UniProt A*11:01)"}, "[3]": {"target": "HLA-A11 on COS7/A11 cells expressing the KRAS G12V minigene (23-mer SEQ ID NO: 120) (human, UniProt A*11:01)"}, "[4]": {"target": "KRAS G12D 10-mer peptide … (SEQ ID NO: 2) presented by HLA-A11 on pulsed cells (human, UniProt A*11:01)"}, "[5]": {"target": "T1, WT KRAS 10-mer peptide (SEQ ID NO: 30) presented by HLA-A11 on pulsed cells (human, UniProt A*11:01)"}, "[6]": {"target": "KRAS G12V 10-mer peptide … (SEQ ID NO: 33) presented by HLA-A11 on pulsed cells (human, UniProt A*11:01)"}, "[7]": {"target": "KRAS G12D 9-mer peptide KRAS8-16 … (SEQ ID NO: 34) presented by HLA-A11 on pulsed cells (human, UniProt A*11:01)"}, "[8]": {"target": "T1, WT KRAS 10-mer peptide (SEQ ID NO: 30) …", "remark": "listed apart in the source"}, "[9]": {"target": "WT KRAS 9-mer peptide (SEQ ID NO: 31) presented by HLA-A11 on pulsed cells (human, UniProt A*11:01)"}}}
{"binder": "B1", "values": [{"measurement": "IFN-γ, PBL + Cos7/A11 minigene transfectant", "setting": "[1]", "value": 32, "unit": "pg/mL"}, {"measurement": "IFN-γ, PBL + Cos7/A11 minigene transfectant", "setting": "[2]", "value": 27, "unit": "pg/mL"}, {"measurement": "IFN-γ, PBL + Cos7/A11 minigene transfectant", "setting": "[3]", "value": 30, "unit": "pg/mL"}, {"measurement": "IFN-γ, PBL + pulsed Cos7/A11", "setting": "[4]", "value": 30, "unit": "pg/mL"}, {"measurement": "IFN-γ, PBL + pulsed Cos7/A11", "setting": "[5]", "value": 30, "unit": "pg/mL"}, {"measurement": "IFN-γ, PBL + pulsed Cos7/A11", "setting": "[6]", "value": 27, "unit": "pg/mL"}]}
{"binder": "B2", "values": [{"measurement": "IFN-γ, PBL + Cos7/A11 pulsed at 10^-6 M", "setting": "[7]", "value": 131, "unit": "pg/mL"}, {"measurement": "IFN-γ, PBL + Cos7/A11 pulsed at 10^-7 M", "setting": "[7]", "value": 60, "unit": "pg/mL"}, {"measurement": "IFN-γ, PBL + Cos7/A11 pulsed at 10^-8 M", "setting": "[7]", "value": 47, "unit": "pg/mL"}, {"measurement": "IFN-γ, PBL + Cos7/A11 pulsed at 10^-9 M", "setting": "[7]", "value": 53, "unit": "pg/mL"}, {"measurement": "IFN-γ, PBL + Cos7/A11 pulsed at 10^-10 M", "setting": "[7]", "value": 53, "unit": "pg/mL"}, {"measurement": "IFN-γ, PBL + Cos7/A11 pulsed at 10^-11 M", "setting": "[7]", "value": 52, "unit": "pg/mL"}, {"measurement": "IFN-γ, PBL + Cos7/A11 pulsed at 10^-12 M", "setting": "[7]", "value": 58, "unit": "pg/mL"}, {"measurement": "IFN-γ, PBL + Cos7/A11 pulsed at 10^-13 M", "setting": "[7]", "value": 51, "unit": "pg/mL"}, {"measurement": "IFN-γ, PBL + Cos7/A11 pulsed at 10^-6 M", "setting": "[8]", "value": 56, "unit": "pg/mL"}, {"measurement": "IFN-γ, PBL + Cos7/A11 pulsed at 10^-7 M", "setting": "[8]", "value": 57, "unit": "pg/mL"}, {"measurement": "IFN-γ, PBL + Cos7/A11 pulsed at 10^-8 M", "setting": "[8]", "value": 51, "unit": "pg/mL"}, {"measurement": "IFN-γ, PBL + Cos7/A11 pulsed at 10^-9 M", "setting": "[8]", "value": 51, "unit": "pg/mL"}, {"measurement": "IFN-γ, PBL + Cos7/A11 pulsed at 10^-10 M", "setting": "[8]", "value": 54, "unit": "pg/mL"}, {"measurement": "IFN-γ, PBL + Cos7/A11 pulsed at 10^-11 M", "setting": "[8]", "value": 50, "unit": "pg/mL"}, {"measurement": "IFN-γ, PBL + Cos7/A11 pulsed at 10^-12 M", "setting": "[8]", "value": 44, "unit": "pg/mL"}, {"measurement": "IFN-γ, PBL + Cos7/A11 pulsed at 10^-13 M", "setting": "[8]", "value": 54, "unit": "pg/mL"}, {"measurement": "IFN-γ, PBL + Cos7/A11 pulsed at 10^-6 M", "setting": "[9]", "value": 54, "unit": "pg/mL"}, {"measurement": "IFN-γ, PBL + Cos7/A11 pulsed at 10^-7 M", "setting": "[9]", "value": 53, "unit": "pg/mL"}, {"measurement": "IFN-γ, PBL + Cos7/A11 pulsed at 10^-8 M", "setting": "[9]", "value": 59, "unit": "pg/mL"}, {"measurement": "IFN-γ, PBL + Cos7/A11 pulsed at 10^-9 M", "setting": "[9]", "value": 54, "unit": "pg/mL"}, {"measurement": "IFN-γ, PBL + Cos7/A11 pulsed at 10^-10 M", "setting": "[9]", "value": 51, "unit": "pg/mL"}, {"measurement": "IFN-γ, PBL + Cos7/A11 pulsed at 10^-11 M", "setting": "[9]", "value": 48, "unit": "pg/mL"}, {"measurement": "IFN-γ, PBL + Cos7/A11 pulsed at 10^-12 M", "setting": "[9]", "value": 52, "unit": "pg/mL"}, {"measurement": "IFN-γ, PBL + Cos7/A11 pulsed at 10^-13 M", "setting": "[9]", "value": 51, "unit": "pg/mL"}]}
